The assay has as its target 14-3-3 (endogenous, detected with a 14-3-3 antibody; isoform not told) (UniProt Q04917). The assay is described as follows: anti-FLAG co-immunoprecipitation, western blot densitometry. To be noted: HeLa cells, transfected; mean ± SD of three experiments; read off a plot. (In general: In western blotting, separated proteins are transferred to a membrane and probed.)

The source of these data is PMC6874091.

UniProt Q04917, sequence (Q04917 whole entry, canonical isoform): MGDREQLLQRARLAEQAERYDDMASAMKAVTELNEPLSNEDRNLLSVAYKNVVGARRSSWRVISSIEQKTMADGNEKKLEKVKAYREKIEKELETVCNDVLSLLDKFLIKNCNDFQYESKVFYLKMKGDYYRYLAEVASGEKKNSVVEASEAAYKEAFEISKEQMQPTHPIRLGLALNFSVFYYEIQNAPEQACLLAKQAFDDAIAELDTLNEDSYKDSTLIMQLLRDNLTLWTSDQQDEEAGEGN

As to “3xFLAG-BPLF1 (amino acid residues 1-235), catalytically active N-terminal deconjugase domain of the Epstein-Barr virus large tegument protein BPLF1 (from UniProt P03186) D86R; D90R”, the ratio to parent is 0.49.
